According to the DeepSol protein solubility set:

Assay: soluble on expression in E. coli; label from the status in PepcDB or PDB records

Row | Sequence | soluble on expression in E. coli
1 | SLHAQTFHSDSLLSQEEAAAAGDRRPAPDTWIYPLIQMKPFEIQIDEIVTETLLMEAERGAKVFLTTGYFNLTQAYMDLVLGTRAEYQILLASPEVNGFFGAKGVAGAIPAAYVHIERQFYSEVCSLGQQDRVQLQEYWRRGWTFHAKGLWLYLAGSSLPCLTLIGSPNFGYRSVHRDLEAQIAIVTESRSLQQQLHQEQEQLYLRSGVVTSATFEQPGRQVKLWVKMVTPLIKNFF | soluble
2 | SLVSVRCAECKGKLLCGRSKCPLLEKYRFLKEIKIDSRILDPSPPSIFVGRVGYPKVYAGPLVSINADPVYADSPWLWKSIEEVIRLRTSMLRVSRRFRVEDVREEKKELTEMQEMTAAIKPVDVEAEIRKISRKAEFDDVMQPMGYSAIAESIKLAENPKIPDKVEKVYYDDMKAYEALSYLYNHGFSTYYLQKIFSAGILGERKSRKLVPTRWSITAVHSIVGEAIKREIAAYKPIDKTLLFNYEHFGNHFEVILSPENYFFQLVEIWQRKSFWSPKRTGLGLTART | soluble
3 | SLLTTCKSVLKLPYLEKIKVVAGEKGLNRIITWVQVVEYPEYSKWLKGGELILISGIAIKNNINSLVNFIRDINSRSLSGIVISIGPYIKEIPKEVIEIGNQLDFPIFEIPFEVKFIDVSQSICKAIFANKVNQESMENFMKDIIFRDFTFSEDILSRAVAYGYNPKTKYISFVVELHNEKDMLECDLKTKQYIEQIVIEVLGEWNKRSIHIMQYNSIILMLPKNEKRTIKNIAMNIIEEIISKAKNTSVNIGVGGEFSELRDFKISVSEAHRCLKVLKLNNDNNTVISYDELGIYKLFFQMDNLEEMKKFYLDVLKKLIDYDSKN | soluble
4 | MPLEASELKPTAGPLEASELKPTAGPLEASELKPTAGPLEASELKPTAGPLEASELKPTAGPLEASELKPTAGPLEASELKPTAGMEKTKKIAVMSGKGGVGKTTVAVNLAVALAAEGYQVGLLDLDLHGPNVQRMLGVSLPPSEGEKIVPAKYGDSLKVFSLAMILQEGAPVIWRGPLKHKAIEQLTRDVEWGDLDYLICDLPPGTGDEALSTFQIIKPDAVIVVSTPQKVAGDDVRRAINFVKRLSGKILGLVENMSYLVCPNCGEKIYVFGKGETEKLAEEFGIPLIARIPMDPEVVSLSDEGRPAVVYKRGTVIEEEFKKIVEKVLSLLEHHHHHH | not soluble
5 | MNVNIDSEQLFTEEKPKDYAQPEVLCHTFELLSNLHKLLPNRTVEVLHSYRSEEDKRKCEKPEFSGIEKILARHQLPKEINLSPKPSHVPSWKRKIINNISGNWKKCRLWQKSIYEPPMGTIIVRWTKKNLQPSEDLKSVIQRLSALGPIISVTPCGRESAVVVFRDAASACKAVSAFQTMSADSMFHCSWQHRFMSKNKTWSRRYPSKIHAEKKEKHP | not soluble
6 | MGSDKIHHHHHHMSTLLQHVNLTEFVDVARQLGLDPYRQLRQAGIRPTALVDPEMRVPAKSVMQLLEDSAQLAGLEDLGLRVAEARELTTLGPLWTVMREGATLRNALGAMARYLHLLNEALDLRLEEVGDTAVVRLEFLVSVDGSMRQSTEFIICLWFRLFKLLSGDAWKPRSVCFTHAAPASLATHRRVFGVPVRFHQDFDGILLSAADLDVAGTTSDTALGRHAREFLDTKLAQSDSTMPDKVRKLVFALLPTGECGAEQVARQLGIDRKTMHRHLAAYGQNYLSVVDAVRVELVTRYLKNNERPLSDVAILMGFSSLSAFSRWFATRYGCSVSAWRRQRTAPEIRR | not soluble
7 | MGSDKIHHHHHHMHSLQRKVLRTICPDQKGLIARITNICYKHELNIVQNNEFVDHRTGRFFMRTELEGIFNDSTLLADLDSALPEGSVRELNPAGRRRIVILVTKEAHCLGDLLMKANYGGLDVEIAAVIGNHDTLRSLVERFDIPFELVSHEGLTRNEHDQKMADAIDAYQPDYVVLAKYMRVLTPEFVARFPNKIINIHHSFLPAFIGARPYHQAYERGVKIIGATAHYVNDNLDEGPIIMQDVIHVDHTYTAEDMMRAGRDVEKNVLSRALYKVLAQRVFVYGNRTIIL | not soluble
8 | MGSDKIHHHHHHMRIGVIGLGRIGTIHAENLKMIDDAILYAISDVREDRLREMKEKLGVEKAYKDPHELIEDPNVDAVLVCSSTNTHSELVIACAKAKKHVFCEKPLSLNLADVDRMIEETKKADVILFTGFNRRFDRNFKKLKEAVENGTIGKPHVLRITSRDPAPPPLDYIRVSGGIFLDMTIHDFDMARYIMGEEVEEVFADGSVLVDEEIGKAGDVDTAVVVLRFKSGALGVIDNSRRAVYGYDQRIEVFGSKGRIFADNVRETTVVLTDEQGDRGSRYLYFFLERYRDSYLEELKTFIKNVKSGEPPAVSGEDGKMALLLGYAAKKSLEEKRSVKLEEVIG | not soluble
9 | MGSDKIHHHHHHMGYAYLRGLRNARLQNNNDETSTVFRSCSVPTFQKMRSAYGRRVVKDVFAPNGGVFINRLVEYVTGQGHDFENMLAQKLAISEPLSSSAQVLPVYEHSLVFGLAERVCNDTSIGYALAYQCTLRDAGLVGYAVSASETAGEALYTLSRLSNVFEVVSASASGGLVDLRWDFGSQGKLDLRHWSEFIATLLVRSLKTLCTGAVAPVGVEFTHTAPSSSEQAVLAFGVKPTYRGRLNRLTFREQDLRQPLRSADAGLLRLLLEHAELLRRRPDRNSNDLSITVERLIMDGMSEGDASLAQVAESLDMSQRTLSRKLASEGTSFFAILEGVRKSLALRYLQQNEKSLSEISFALGYSSLSSFNDAFRRWYDQSPGSYRSDALKEAAVKS | not soluble
10 | SLPEKVLVAGNNVRNVAESASKAGFEVFAITKFVDADLRIYCREVERVDDSLPEKEIAKKIEDKAEEIDAKVVLCSGFETLRVRGELLCNPYGKVERVANKLKFYRELEKAGLPFPELLGEGERGIIKPVVGGGGEEVVMGEEVPKGFLKQRFVSGTPCSVSVIANGERALPLACNLIYAGWKEMNASGFRYSGNMTPFIVEEEIRKELERLAVEAVELFGLAGSVGVDFVLAEKPYILEINPRFQGSLDSVEWSCDVNLFKMHAEAFDGRLPERVRPRRYALRAILFSPRDVEIKENLAGNPFYADVPGKGERYGKNDPLVSILAAGKSREDVERRVLERRDLFLSLA | not soluble
11 | MVIILAMTNREKFKVLADQIKISNQLEQDILEQGELTRIDVSNKNRTWTFQISLPHFLSHEDYLLFTHAIEEEFKEIATVAIDFSIKDTNNQDEFALKYFGHCIDQTRLSPKVKGQLKQKKLIMSGNVLKVLVSNDIERNHFDKACNGSLVKA | not soluble
12 | MIDNFWRELPRPFFVLAPMEDVTDVVFRHVVSEAGRPDVFFTEFTNSDSYCHPEGMKSVRGRLIFTEDEQPMVAHIWGDNPEYFRQMSIGMAELGFKGIDINMGCPVPNVASRGKGSGLILRPDVAAELIQAAKAGGLPVSVKTRLGFKELSEWEDWLTHIFKQDIANLSIHLRTREEMSQVDAHWELIPEIKKLRDRIAPNTLITINGDILDRKMGLELAEKYGIDGVMIGRGIFKNPFAFEKEPREHSSKEHLDLLRLQLDLQDQYAEVLPRSITGLHRFFKIYVKGFPGAAELRNQLMSTKSTDEVRALLDKFEASVDEAQDSETV | not soluble
13 | MGSDKIHHHHHHMSTNALRGKAAIVGFGDSYCKRGEVKSAMRLAQEATRRALDDAGLNKDEIDGLLTGRAPMSDQRHQWNNIFAAYNKITPRYASEITIHAAGMNSMLKHAALAVTSGVARFVLCVGADAAASQPTVRAQIGGMDADPEFEQPYEPIIPTIYAQMACRLMHEYGMSEEDFSAVAVQCQEWAVHHPYAAKGHKGLVTIDDVMRSPMIASPLRLWHCAPWGPPGTAGAVIVTDADTARSMSDRPIYLLGAGECQTHEYLSDRMALRSSILPLGDLPNITSTGCRVAGDAAFSMAGLRPDDINVVQTASQFAHVELQVLAELGFTDLRAAGEFVRSGATGPQGALPTNTNGGWLSFGQPGVSCVMDSISETIRQLRGEALGLQVQDAHIGLVHGNGGMQACHSVAILGREP | not soluble
14 | MPKINTSSSGWLADISLFYEKRGTNTKLVHREQVGPLMVQRPFYPETGIAHTYLLHPPGGVVGGDQLNINIHVSPQAHSLLTTPGATKFYRSSGATSSQTQNLTVESDGFLEWLPQENIFFPDSQAQLKTQVELHKNAHFIGWEMNCFGRPVLDEIFENGFVTGRTNIKVDDQLLLSESMYIDSIDEIKHAAGMRHYPMLGNLYIYPASEALEEKLRTLIDENFHEQPELFGSSNPICGITEIDGLLVIRYLGHQTEPMMACFSTLWQHTRQHWLGKLPEVPRIWATLEHHHHHH | not soluble
15 | MGLFASAPVDDGSMEIVRDFIQNMENDAQSSNKSAFADCFMDTFNFNVRGRIFTKALFVESYLTKPNPEPLILKSSIFTQGKNEIKFNVSHVVGPRTNIADFYLLREGEEGKWRLKSGIVIN | not soluble
16 | MFLFSELCRRLSPDAVRIVSDHRIVHLLTDSRTLSEPATTLFFALRTTSGDGHLYIRDLYDRGVRSFVISDPSKDLMEKMPQANWMRVAHPLDALQRIAALRRSMFDIPVIGITGSNGKTIVKEFLYQLLRKDYRIVRSPRSYNSQIGVPLSVWQMAEEHTLGIFEAGISQMGEMERLE | not soluble
17 | MPVRASIEPLTWENAFFGVNSAIVRITSEAPLLTPDALAPWSRVQAKIAASNTGELDALQQLGFSLVEGEVDLALPVNNVSDSGAVVAQETDIPALRQLASAAFAQSRFRAPWYAPDASGRFYAQWIENAVRGTFDHQCLILRAASGDIRGYVSLRELNATDARIGLLAGRGAGAELMQTALNWAYARGKTTLRVATQMGNTAALKRYIQSGANVESTAYWLYR | soluble
18 | MNIDSDIFKIQSNNVLPSRGKILISEPFLRDATFGRSVVLLIDHTEEGSMGLIINKQLPIFVNDIIKEFKYIENIPLYKGGPIATDTLFYLHTLADIPGAIPISKGLYLNGDFDEIKKYILQGNKVDRYIRFFLGYSGWESEQLSTELKENTWLVSKEENAYLMNGDTKDMWKQALEKLGSKYETWSRFPQVPTFN | not soluble
19 | MKENAVRRANDPKRREKIIQATLEAVKTYGVHAVTHRKIAAIAQVPLGSMTYYFAGMDALLSEAFTLFTENMSRQYQDFFAQVTDAEGACQAITEMIYGSQVTTPDNMALMYQLYAYASDKPALKIVMQNWMQRSQNTLAQWFDAQTARALDAFIEGMTLHFVTDRTPLAREAILQMVKRIAGVSMSCHSALGNKKPTNLEPKWRG | not soluble
20 | MGGSHHHHHHGMASLAPGSSRVELFKRKNSTVPFEESNGTIRERVVHSFRIPTIVNVDGVMVAIADARYETSFDNSFIETAVKYSVDDGATWNTQIAIKNSRASSVSRVMDATVIVKGNKLYILVGSFNKTRNSWTQHRDGSDWEPLLVVGEVTKSAANGKTTATISWGKPVSLKPLFPAEFDGILTKEFIGGVGAAIVASNGNLVYPVQIADMGGRVFTKIMYSEDDGNTWKFAEGRSKFGCSEPAVLEWEGKLIINNRVDGNRRLVYESSDMGKTWVEALGTLSHVWTNSPTSNQQDCQSSFVAVTIEGKRVMLFTHPLNLKGRWMRDRLHLWMTDNQRIFDVGQISIGDENSGYSSVLYKDDKLYSLHEINTNDVYSLVFVRLIGELQLMKSVVRTWKEEDNHLASICTPVVPATPPSKGGCGAAVPTAGLVGFLSHSANGSVWEDVYRCVDANVANAERVPNGLKFNGVGGGAVWPVARQGQTRRYQFANYRFTLVATVTIDELPKGTSPLLGAGLEGPGDAKLLGLSYDKNRQWRPLYGAAPASPTGSWELHKKYHVVLTMADRQGSVYVDGQPLAGSGNTVVRGATLPDISHFYIGGPRSKGAPTDSRVTVTNVVLYNRRLNSSEIRTLFLSQDMIGTDGGAGTAA | soluble
21 | SMATPNQTACNAESPVALEEAKTSGAPGSPQTPPERHDSGGSLPLTPRMESHSEDEDLAGAVGGLGWNSRSPRTQSPGGCSAEAVLARKKHRRRPSKRKRHWRPYLELSWAEKQQRDERQSQRASRVREEMFAKGQPVAPYNTTQFLMNDRDPEEPNLDVPHGISHPGSSGESEAGDSDGRGRAHGEFQRKDFSETYERFHTESLQGRSKQELVRDYLELEKRLSQAEEETRRLQQLQACTGQQSCRQVEELAAEVQRLRTENQRLRQENQMWNREGCRCDEEPGT | soluble
